Laboratory results as given in paper doi:10.1101/2025.05.28.656718 (bioRxiv, 2025).

B1: Recombinant SARM1 (affinity tags removed by TEV protease) (natural protein, human, UniProt Q6SZW1 28-724, looked up)
chain: LAVPGPDGGGGTGPWWAAGGRGPREVSPGAGTEVQDALERALPELQQALSALKQAGGARAVGAGLAEVFQLVEEAWLLPAVGREVAQGLCDAIRLDGGLDLLLRLLQAPELETRVQAARLLEQILVAENRDRVARIGLGVILNLAKEREPVELARSVAGILEHMFKHSEETCQRLVAAGGLDAVLYWCRRTDPALLRHCALALGNCALHGGQAVQRRMVEKRAAEWLFPLAFSKEDELLRLHACLAVAVLATNKEVEREVERSGTLALVEPLVASLDPGRFARCLVDASDTSQGRGPDDLQRLVPLLDSNRLEAQCIGAFYLCAEAAIKSLQGKTKVFSDIGAIQSLKRLVSYSTNGTKSALAKRALRLLGEEVPRPILPSVPSWKEAEVQTWLQQIGFSKYCESFREQQVDGDLLLRLTEEELQTDLGMKSGITRKRFFRELTELKTFANYSTCDRSNLADWLGSLDPRFRQYTYGLVSCGLDRSLLHRVSEQQLLEDCGIHLGVHRARILTAAREMLHSPLPCTGGKPSGDTPDVFISYRRNSGSQLASLLKVHLQLHGFSVFIDVEKLEAGKFEDKLIQSVMGARNFVLVLSPGALDKCMQDHDCKDWVHKEIVTALSCGKNIVPIIDGFEWPEPQVLPEDMQAVLTFNGIKWSHEYQEATIEKIIRFLQGRSSRDSSAGSDTSLEGAAPMGPT
B2: Recombinant PKM2 (His-SUMO tag removed) (enzyme)
chain: not shown
B3: Recombinant PKM1 (His-SUMO tag removed) (enzyme)
chain: not shown

Experiments:
His-tagged PKM1 = His-tagged PKM1 (human, UniProt P14618-2 1-531); assay: AlphaScreen or HTRF
[1] = molecular target: B1; assay: SPR

| IC50 (His-tagged PKM1) | Kd [1] | Binder |
| --- | --- | --- |
| 3.46 µM |  | B1 |
|  | 1310 nM | B2 |
|  | 2890 nM | B3 |
